Measured values published in article PMC5910400, “Genetically engineered two-warhead evasins provide a method to achieve precision targeting of disease-relevant chemokine subsets” (Scientific Reports, 2018).

B1: P1243 (evasin from Amblyomma americanum), purified, C-terminal StrepII:8xHis tag (natural protein)
chain: ETGRNHTEDNSTEYYDYEEARCACPARHLNNTNGTVLKLLGCHYFCNGTLCTAPDGYPCYNLTAQQVRTLTTYPNTSCAVGVCMKGTCVKNGTMEQCFKTP
B2: CCL1 (ligand, human, UniProt P22362 24-96, looked up)
chain: KSMQVPFSRCCFSFAEQEIPLRAILCYRNTSSICSNEGLIFKLKRGKEACALDTVGWVQRHRKMLRHCPSKRK
notes: source: bought: Peprotech
B3: CCL3L1 (ligand, human, UniProt P16619 24-93, looked up)
chain: APLAADTPTACCFSYTSRQIPQNFIADYFETSSQCSKPSVIFLTKRGRQVCADPSEEWVQKYVSDLELSA
notes: source: bought: Peprotech
B4: CCL3 (ligand, human, UniProt P10147 24-92, looked up)
chain: SLAADTPTACCFSYTSRQIPQNFIADYFETSSQCSKPGVIFLTKRSRQVCADPSEEWVQKYVSDLELSA
notes: source: bought: Peprotech
B5: CCL22 (ligand, human, UniProt O00626 25-93, looked up)
chain: GPYGANMEDSVCCRDYVRYRLPLRVVKHFYWTSDSCPRPGVVLLTFRDKEICADPRVPWVKMILNKLSQ
notes: source: bought: Peprotech
B6: CCL5 (ligand, human, UniProt P13501 24-91, looked up)
chain: SPYSSDTTPCCFAYIARPLPRAHIKEYFYTSGKCSNPAVVFVTRKNRQVCANPEKKWVREYINSLEMS
notes: source: bought: Peprotech

Assays:
CCL3 = molecular target: B4; experiment: cell-based or functional assay
CCL5 = molecular target: B6; experiment: cell-based or functional assay
CCL3L1 = molecular target: B3; experiment: cell-based or functional assay
[1] = molecular target: B1; experiment: BLI; titration; evasin immobilised on the sensor through the C-terminal His tag; chemokine 300 nM to 0.4 nM (CXCL2: 600 nM to 1.2 nM), at least five concentrations; non-interacting reference protein; one-site binding fit or steady state analysis; details: both partners purified

B1 was tested, and the “mean IC50 (three biological replicates) of inhibition of THP-1 cell migration induced by the EC80 dose of CCL3” value (CCL3) was 6.5e-09 M, the “mean IC50 (three biological replicates) of inhibition of THP-1 cell migration induced by the EC80 dose of CCL5” value (CCL5) was 8.9e-09 M and the “mean IC50 (three biological replicates) of inhibition of THP-1 cell migration induced by the EC80 dose of CCL3L1” value (CCL3L1) was 1e-09 M.

B2: binds [1].

B3: binds [1].

B4: binds [1].

B5: binds [1].

B6: binds [1].
